Source: the DeepSol protein solubility set

Assay: soluble on expression in E. coli; label from the status in PepcDB or PDB records

| Sequence | soluble on expression in E. coli |
| --- | --- |
| MLIILTGLPSVGKSTFSKAFSKKMAEKNIDNIILGTDLIRESFPVWKESYEEFIRDSNNYLIKEALENKFSVIVDDTNYYNSKRRDLMNIAKECDTNYVTIYLKAPLNLLLKRNIERGQKIPNEVIKNMYEKFDTPGTKYAWDLPDITVDTTEKIDYNEILNEILEINENKNLKIEEDKIPKSEPVESDLVKIDSLTRNIVGNLIKTGKIDKKDIKLLSEIRKSFLKDCKKIESEKLDFEKIEKDFLDYLNKNLK | not soluble |
| MPNRPDLCLGVMSIELRHLRAAVAIAEAGSFTAAANALHITQPALTRTVQQLETSLGVRLFDRTSRALALTEDGAGFVEKVRVILGDLDSAVALYTNRSLVLGFSWLLPDPWAQQVIDDVEKNSRATVVPRRYDDPVAALNNATVDAAVVRRDVPGDEFVQHPLFEEQRIAAVSTASPLATRESIDWAEFGTLPLVINTLSGTTSEDLWPNHDGPVVTCSNFDDWLELIAADRGVGTVPEVARRRVTHRNVQFIPLVGAPPAVVRFVYRRNRVTPLLRVLRDAAIRHSPPPGSVTVGQHD | not soluble |
| MAHHHHHHMKKRYGNAGDWAVVTGASEGIGYAMALDLGRRGFNVCVIARTLSKLENVVEELKQLGVQGKAISFDFASATPKQYDDMFAELDKIEIAVLVNNVGVNYTYTNYFDEVDLETDLRLLKVNCESSVRMTKYVVPKMKAKRCGAIVMLGSVSAVTPAPLLCTYAGTKAFNLSFGSGLYYELKQFGIDVLAVSPNMVVSKMTQGLSSRKPRETFLMVNADRMAHQTLDKLGSVPQTPGHCNHAVLEAIVRALPTGYVSNKILETHKSIKRKAERKRE | not soluble |
| MNDQRKKARNTPFNMLKRERNRVSTVQQLTKRFSLGMLQGRGPLKLFMALVAFLRFLTIPPTAGILKRWGTIKKSKAINVLRGFRKEIGRMLNILNRRRR | soluble |
| MGSDKIHHHHHHMWELDVSPTRFKAHFSLDPGVACLNHGMLGACPISVQQRQSTLRAQLERQPAAFVLRALPALLDTARNCLAEVIGADPQDLLLLPNVTTAMSAVLRSRIFAPGDQILTTDHAYLSCRNLLEFIARSTGAEVMVAPVKVPVQHPDAIVDAVLERVTARTRLAVLDHVTSPTAIVFPIARLVERLAALGIDTLVDGAHAPGMLPLDVIAIGAAYYAGDCHKWLCTPRGAGFLHVRRDRQDGLHPPVISRGYGDATPGRPRLHLEFDWLGTADPTALLCIPAAIDFLATLLPGGLPAVFARNHALVTQAAARLAQALPLARLAPDAMVGSMVAFQLPDAASDAPDDAAASLQRWLYDAHRIDVAVTPWPHRTNRTLRISAQVYNAAEDFMQLDAPLAQCLAPDDRQSNNQCRTTEVMR | not soluble |
| MDIDYTVGEVELSYKPKFKNIYKVVSSEDAYKYLLPTYKEGTICYKEYFKVLFLNQASQVLGYTLISEGGITDTTVDVRVILQAALLTNSVAIILAHNHPSGSMKPSRQDMEITKQVKEAARLMRITVTDHLILTDAGYYSFADEGEL | not soluble |
| AHHHHHHGSYEVTKFGGEGKRLEDYREIIGDEALEAIKAKAENLKDKSFVHVNSTSFGGGVAEILHNLVPLMRDVGIDARWFVIEGTNEFFNVTKSFHNALQGNKELRLTEEMKKLYLEINKKNAEDIDLTQFDYVLIHDPQPAPLIEFYEKRQPWIWRCHIDLSDPNLEFWKFLRQFVEKYDRYIFHMEEYVQEDLNQEKVVIMPPSIDPLSEKNMELSESEILKTLERFDVDPERPIITQVARFDPWKGVFDVIDVYRKVKEKIPEVQLLLVGVMAHDDPEGWIYFEKTLRKIGEDYDIKVLTNLTGVHAREVNAFQRASDVILQMSIREGFGLTVTEAMWKEKPVVGRAVGGIKLQIVDGKTGFLVKDVNDAIEKTLYLLEHKDVAQEMGKNAKERIKENFIITKHLERYLDLLNSF | soluble |
| MPPKKQQEVVKVQWGRPGNNLKTGIVGMPNVGKSTFFRAITKSVLGNPANYPYATIDPEEAKVAVPDERFDWLCEAYKPKSRVPAFLTVFDIAGLTKGASTGVGLGNAFLSHVRAVDAIYQVVRAFDDAEIIHVEGDVDPIRDLSIIVDELLIKDAEFVEKHLEGLRKITSRGANTLEMKAKKEEQAIIEKVYQYLTETKQPIRKGDWSNREVEIINSLYLLTAKPVIYLVNMSERDFLRQKNKYLPKIKKWIDENSPGDTLIPMSVAFEERLTNFTEEEAIEECKKLNTKSMLPKIIVTGYNALNLINYFTCGEDEVRSWTIRKGTKAPQAAGVIHTDFEKAFVVGEIMHYQDLFDYKTENACRAAGKYLTKGKEYVMESGDIAHWKAGKR | soluble |
| MGKNVVVLGTQWGDEGKGKVVDLLTERAKYVVRYQGGHNAGHTLVINGEKTVLHLIPSGILRENVISIIGNGVVLAPDALMKEMTELEARGVPVRERLLLSEACPLILPYHVALDNAREKARGAKAIGTTGRGIGPAYEDKVARRGLRVSDLFNKETFAIKLKEIVEYHNFQLVHYYKEAAVDYQKVLDDVLAIADILTAMVVDVSELLDNARKQGELIMFEGAQGTLLDIDHGTYPYVTSSNTTAGGVATGSGLGPRYVDYVLGIVKAYSTRVGAGPFPTELNDETGEFLRKQGNEYGATTGRSRRTGWLDIVAVRRAVQINSLSGFCMTKLDVLDGLKEVKLCVGYRMPDGREVDTTPLAAEGWEGIEPIYETMPGWSETTFGVKEHSKLPQAALNYIQRVEELTGVPIDIISTGPDRDETMILRDPFDA | soluble |
| AHHHHHHGSAVRLKTPLTWEDIRDLEIGDRVLLSGIVYTARDLAHRRFLEEGFPFNPEGAVIYHCGPLIKNGIVVSAGPTTSARMEKYLDFLFNRGVRGVIGKGGMNHEKFKGRAVYFSYPGGAGSLAREFIVKVRDVYWEDLGMTDAVWELEVRDMPLLVSIDSKGRSLYRKN | soluble |
| MSNQLAVSDVPTAAWTSQQPRSPRMFDQENGFSQNFQPFMQQNKTVNPCTISDDVREEMMRLRRRENAFKTALCKTFQLTKACSYGEQCKFAHSVEELQLKHQNLGINNPKYKTVLCDNFSTTGHCKYGTKCQFIHRTVEPASLKIQNPLVPRFPSWFAPPSSLAREFLCLNHFEASTSSSTTQKLTSSNLSTSTFRYY | not soluble |
| GANTTETPVKDVELDGRWDDPIRSAATNCPITVFTDGYLLTLKNASPDRDMTIRITDMAKGGVVYENDIPEVQSAYITISIANFPAEEYKLEITGTPSGHLTGYFTKE | soluble |
| EQISISSPRKRIYHNILETIGGTPLVELHGVTEHPRIKKGTRILVKLEYFNPMSSVKDRVGFNIVYQAIKDGRLKPGMEIIESTSGNTGIALCQAGAVFGYRVNIAMPSTMSVERQMIMKAFGAELILTEGKKGMPGAIEEVNKMIKENPGKYFVANQFGNPDNTAAHHYTANEIWEDTDGEVDIVVSAVGTSGTVIGVAEKLKEKKKGIKIIAVEPEESAVLEGKAKGPHGIQGIGAGFIPDIYKKEFVDEIIPIKTQDAWKMARAVVKYDGIMCGMSSGAAILAGLKEAEKPENEGKTIVIIVPSCGERYLSTDLYKIKDEGTKIQILDSLLNEHH | soluble |
| MISLPIDAVVPALRQALGAQHQAVLEAPPGAGKTTRVPLALLDEPWLAGQRILMLEPRRLAARAAAERLAAELGEKVGETVGYRIRLESRVGPKTRIEVVTEGILARRLQDDPALDGVGLVIFDEFHERSLDADLALALTLNGRELLRDEPPLKVLVMSATLEGERLAALLGEAPVVRSEGRMFPVDIRWGRPAQPGEFIEPRVQQAVLQALAEESGSVLVFLPGQAEIRRVHEGLREALGGRPEVLLCPLHGELDLAAQRAAIEPASRGTRKVVLATNIAETSLTIDGVRVVIDAGLARVPRFDPGSGMTRLETQRISRASATQRAGRAGRLEPGVCYRLWSESQHEQLPAYGTAEILQADLAGLALQLARWGVAPEELAWLDAPPAAAYAQARELLGRLGALNASGALSAHGQAMAELPTHPRIAHLLLRGQALGLGELACDVAALLGERDIQRGGGADLHSRLALLAGEARTGASRGAVQRARQLARQFRGYLRGAASEAVVDPGHPRWLGCLLAFAYPDRIARQRRAGGGDYRLANGRAAQFGEPDSLMKQPWLVIADLGSRQGQREERIYLAAELDPRLFDTVLAEQVSQRDELQWDEREGVLRAERQRRVGELVLSSEALPGLDEAARSQALLGLVRRKGLELLPWTPELRQWQARIGLLRRLDLEDKGESEWPDVSDAALLERLEEWLPAYLGKVTRLAHFANLDLASILAGLLPWPLPQRLDEWAPKTLEVPSGSRIRLDYSETPPILAVRLQELFGLGDTPRIAQGRLAVKLHLLSPAHRPVQVTQDLANFWRSTYAEVRKDLKGRYPKHYWPDDPLVAEATARAKPR | not soluble |
| MEFDPVKINTSSIDHVTILQYIDEPNDIRLTVCIIRNINNITYYINITKINPHLANRFRAWKKRIAGRDYMTNLSRDTGIQQSKLTETIRNCQKNKNIYGLYIHYNLVINVVIDWITDVIVQSILRGLVNWYIANNTYTPNTPNNTTTISELDIIKILDKYEDMYRVSKEKECGICYEVVYSKRLENDRYFGLLDSCNHIFCITCINIWHRTRRETGALDNCPICRTRFRKITMSKFYKLVN | not soluble |
| MAEYKFYYFNGRGLGDVSRQLFALSGTKYEDIRIEHADWPAQKPKMPFGQMPVLELSSGLQIPQSMAIARYLAKKFGYAGKTDEEAALADALIDQFKDFYAEIKPYYYAKIGVLQNDTEEEKKKTLIPARDKFLTIIGKFLKLSISGFLFSGGLTYADLMICDNMRTLIAWWPEYLNEYPDIKAWYQKVDGIPEIRKHLESSPDKGF | soluble |
| MGSDKIHHHHHHMTKKILFCATVDYHFKAFHLPYFKWFKQMGWEVHVAANGQTKLPYVDEKFSIPIRRSPFDPQNLAVYRQLKKVIDTYEYDIVHCHTPVGGVLARLAARQARRHGTKVLYTAHGFHFCKGAPMKNWLLYYPVEKWLSAYTDCLITINEEDYIRAKGLQRPGGRTQKIHGIGVNTERFRPVSPIEQQRLREKHGFREDDFILVYPAELNLNKNQKQLIEAAALLKEKIPSLRLVFAGEGAMEHTYQTLAEKLGASAHVCFYGFCSDIHELIQLADVSVASSIREGLGMNVLEGMAAEQPAIATDNRGHREIIRDGENGFLIKIGDSAAFARRIEQLYHKPELCRKLGQEGRKTALRFSEARTVEEMADIYSAYMDMDTKEKSV | not soluble |
| MGSDKIHHHHHHMNIDAHNLNDLMYFSQVVEHGGFSAAERVLGISKSRLSRRLTELEAALGVRLLQRSTRKLALTEAGELFYQHCQAMLAEAQAAMNAVQQLRSSPRGSVRVSVPVTLSQTMLSRILPEFLHRYPEVKVHIRVTNRVIDLFEDSVDVALRVRSEPPQNANIVVRPLWRTEQMLVGAPSLLSQNAPPLVPDDLARFETLDTPSVDGRHVFNLIAPDGTRHLHEHDPRLVTADLMTIREAVLDGLGIAALPEMMYGNALRAGQLSPVMPGWTLPVPQLYAAFVSRQGMPPAVRAFVDYLVEKLDHGDYKQPSCPERDKKEAAAADVSST | not soluble |
| MNIEEIKIMGGFNKFGESEKVKELVVKRGEIFGVVGPTGSGKSNLISDIEQLAQGDTPSNRKILVNGNVPDTEMRRDPRKRRIAQLSQNMNFLADMTVEEFLIMHAKSRGMNSEGIVDKVIKLANNLTGEPIEKDYNLTILSGGQSRSLMVADVAVISDSPIVLIDEIENAGIKKHEALELLAGCGKIVMVITHDPVLALMTTRRVVMRNGGMNEIIETTE | not soluble |
| SNVNIDSEQLFTEEKPKDYAQPEVLCHTFELLSNLHKLLPNRTVEVLHSYRSEEDKRKCEKPEFSGIEKILARHQLPKEINLSPKPSHVPSWKRKIINNISGNWKKCRLWQKSIYEPPMGTIIVRWTKKNLQPSEDLKSVIQRLSALGPIISVTPCGRESAVVVFRDAASACKAVSAFQTMSADSMFHCSWQHRFMSKNKTWSRRYPSKIHAEKKEKHP | soluble |
